From patent US20180085455A1 (ISU ABXIS, published 2018) come the findings set out here.

In one assay the target is ErbB3 on cancer cells (UniProt P21860 20-1342, limits assumed). Put plainly: cell-based or functional assay.
In assay [1] the target is T1, recombinant human ErbB3 protein (R&D systems) (human, UniProt P21860 20-643).
T1 construct: Bought recombinant protein; also called HER3
Put plainly: BLI (Octet QK384), human ErbB3 immobilized on AR2G sensor, IgG at 12.5-50 nM. How it is done:
After activation of carboxyl groups in 20 mM of 1-ethyl-3-(3-dimethylaminopropyl)carbodiimide hydrochloride (EDC) and 40 mM of N-hydroxysulfosuccinimide (sulfo-NHS) solution on an AR2G sensor (ForteBio), 10 μg/mL of human ErbB3 protein solution diluted with 10 mM of sodium acetate (pH 4.0) (ForteBio) was added to immobilize human ErbB3 protein onto the AR2G sensor. The AR2G sensor to which the human ErbB3 protein was immobilized and was treated with 1 M of ethanolamine (ForteBio) to inactivate the remaining unreacted carboxyl groups.
(Biolayer interferometry detects binding as a change in optical thickness at a sensor tip.)

Usually Kd stands for the constant that tells how readily two partners part at equilibrium. As usually defined, the koff is a measure of how fast the partners let go of each other. Broadly, the kon is a measure of how fast the partners come together.

Positions count from the first letter of the chain named.

B1: 442M6 (antibody, V domains shown)
VH: EVQLLESGGGLVQPGGSLRLSCAASGFTFSDYDMSWVRQAPGKGLEWVSSIEPDSGSTDYADSVQGRFTISRDNSKNTLYLQMNSLRAEDTAVYYCAKDRHMWPEGPFDYWGQGTLVTVSS
VL: QSVLTQPPSASGTPGQRVTISCSGSSSNIGSNSGSWYQQLPGTAPKLLIYADNWRPSGVPDRFSGSKSGTSASLAISGLRSEDEADYYCAAWDSSLSGYVFGGGTKLTVLG
notes: IgG1 (Selexis 085 vector, CHO)
For the molecule B1, in the assay with ErbB3 on cancer cells, the “Inhibition of Akt phosphorylation, IC50 (HRG-stimulated MCF7 cells)” value (“Inhibition of Akt phosphorylation, IC50” for short) stood at 0.304 nM and the “Inhibition of ErbB3 phosphorylation, IC50 (HRG-stimulated MCF7 cells)” value (“Inhibition of ErbB3 phosphorylation” below) stood at 0.271 nM. In addition, in assay [1], the Kd is 0.0201 nM, the koff turned out to be 1.95e-05 s⁻¹ and the kon amounted to 969000 M⁻¹ s⁻¹.

B2: 442S5 (antibody, V domains shown)
VH: B1 VH with S50I, T58I, D59Y, R100L, W103G
VL: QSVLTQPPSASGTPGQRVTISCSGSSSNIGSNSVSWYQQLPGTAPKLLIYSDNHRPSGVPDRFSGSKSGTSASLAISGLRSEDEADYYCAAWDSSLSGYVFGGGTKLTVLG
notes: as for B1
Take B2: in the assay with ErbB3 on cancer cells, the “Inhibition of Akt phosphorylation, IC50” value came to 0.167 nM and the “Inhibition of ErbB3 phosphorylation” value is 0.0854 nM. Further, in assay [1], the dissociation constant Kd was found to be 0.0175 nM, the koff came out at 2.74e-05 s⁻¹ and the kon amounted to 1.57e+06 M⁻¹ s⁻¹.

B3: 442S1 (antibody, V domains shown)
VH: B1 VH with S50T, E52D, P53L, T58I, D59Y, R100L, W103G
VL: B1 VL with G34V, A51S, W54H, A90Q, A91G, S94T, Y99H
notes: as for B1
For B3, in the assay with ErbB3 on cancer cells, the “Inhibition of Akt phosphorylation, IC50” value was 0.239 nM and the “Inhibition of ErbB3 phosphorylation” value came to 0.222 nM. Moreover, in assay [1], the dissociation constant (Kd) is less than 0.001 nM, the koff was 3.94e-07 s⁻¹ and the kon was found to be 522000 M⁻¹ s⁻¹.
